B1: Azoarcus group I ribozyme (parent)
chain: GUGCCUUGCGCCGGGAAACCACGCAAGGGAUGGUGUCAAAUUCGGCGAAACCUAAGCGCCCGCCCGGGCGUAUGGCAACGCCGAGCCAAGCUUCGGCGCCUGCGCCGAUGAAGGUGUAGAGACUAGACGGCACCCACCUAAGGCAAACGCUAUGGUGAAGGCAUAGUCCAGGGAGUGGCGAAAGUCACACAAACCGG

In the series the parent is B1. Briefly: reverse-splicing fitness (ratio to wild type); higher = more active; in vitro selection; Mg2+ level not given. Put shortly:
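An in vitro group I ribozyme library with randomized positions was T7-transcribed and gel-purified. In triplicate, 10 pmol RNA in EPPS pH 7.5 was reacted with 50 pmoles of a 30-nt RNA substrate for 1 h at 37 °C across several added MgCl2 levels (1–48 mM), then stopped with EDTA. Products were reverse transcribed from a substrate-complementary primer, PCR-amplified and sequenced (HiSeq 4000). Fitness is a variant's read proportion after selection over that before, normalised to wild type.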
In the case of C82A A111G A120C A145U C150U C169A U176C, the reverse-splicing fitness came out at 0.0127.

Turning to C82A A111G A120C A145U C150G C169A U176A, the reverse-splicing fitness was 0.011.

On to C82A A111G A120C A145U C150G C169A U176C, for which the reverse-splicing fitness is 0.0114.

As for C82A A111G A120C A145U C150G C169A U176G, the reverse-splicing fitness was 0.00597.

Regarding C82A A111G A120C A145C C150U U176A, the reverse-splicing fitness came to 0.0118.

C82A A111G A120C A145C C150U U176G: the reverse-splicing fitness is 0.00644.

Turning to C82A A111G A120C A145C C150U U176C, the reverse-splicing fitness was 0.018.

For the variant C82A A111G A120C A145G C169A U176G, the reverse-splicing fitness came out at 0.00562.

C82A A111G A120C A145G C169A U176A: the reverse-splicing fitness turned out to be 0.0226.

For the variant C82A A111G A120C A145G C169A U176C, the reverse-splicing fitness amounted to 0.0269.

With C82A A111G A120C A145U C150A C169G, the reverse-splicing fitness was determined as 0.00948.

Take C82A A111G A120C A145U C150A C169U: the reverse-splicing fitness came to 0.00961.

Consider C82A A111G A120C A145U C150A C169A, for which the reverse-splicing fitness is 0.0111.

Regarding C82A A111G A120C A145C C169U U176G, the reverse-splicing fitness was 0.00478.

C82A A111G A120C A145C C169U U176A: the reverse-splicing fitness came out at 0.0161.

For C82A A111G A120C A145C C169U U176C, the reverse-splicing fitness is 0.0138.

C82A A111G A120C A145G C150A C169G U176C: the reverse-splicing fitness stood at 0.0242.

For C82A A111G A120C A145G C150A C169G U176A, the reverse-splicing fitness amounted to 0.0211.

For C82A A111G A120C A145G C150A C169G U176G, the reverse-splicing fitness came to 0.00711.

As for C82A A111G A120C A145U C150G U176G, the reverse-splicing fitness turned out to be 0.00395.

C82A A111G A120C A145U C150G U176C: the reverse-splicing fitness turned out to be 0.00993.

In the case of C82A A111G A120C A145U C150G U176A, the reverse-splicing fitness stood at 0.00605.

Turning to C82A A111G A120C A145G C150A C169U U176C, the reverse-splicing fitness worked out at 0.0154.

As to C82A A111G A120C A145G C150A C169U U176G, the reverse-splicing fitness turned out to be 0.00842.

For C82A A111G A120C A145G C150A C169U U176A, the reverse-splicing fitness turned out to be 0.0153.

As to C82A A111G A120C A145G C150G C169G U176C, the reverse-splicing fitness turned out to be 0.0115.

Turning to C82A A111G A120C A145G C150G C169G U176A, the reverse-splicing fitness came out at 0.0127.

Regarding C82A A111G A120C A145G C150G C169G U176G, the reverse-splicing fitness worked out at 0.00644.

Take C82A A111G A120C A145G C169U: the reverse-splicing fitness worked out at 0.013.

Regarding C82A A111G A120C A145G C169G, the reverse-splicing fitness came to 0.00928.

As to C82A A111G A120C A145G C169A, the reverse-splicing fitness stood at 0.0112.

Consider C82A A111G A120C A145G C150A U176C, for which the reverse-splicing fitness is 0.0253.

Regarding C82A A111G A120C A145G C150A U176G, the reverse-splicing fitness amounted to 0.0103.

Consider C82A A111G A120C A145G C150A U176A, for which the reverse-splicing fitness was determined as 0.0133.

In the case of C82A A111G A120C A145G C150A C169A U176C, the reverse-splicing fitness was 0.0211.

On to C82A A111G A120C A145G C150A C169A U176G, for which the reverse-splicing fitness stood at 0.00941.

Take C82A A111G A120C A145G C150A C169A U176A: the reverse-splicing fitness came out at 0.019.

Turning to C82A A111G A120C A145C C150A C169G U176C, the reverse-splicing fitness is 0.025.

For C82A A111G A120C A145C C150A C169G U176A, the reverse-splicing fitness is 0.0288.

For C82A A111G A120C A145C C150A C169G U176G, the reverse-splicing fitness was determined as 0.00763.

Take C82A A111G A120C A145C C150G C169G: the reverse-splicing fitness is 0.00705.

Take C82A A111G A120C A145C C150G C169U: the reverse-splicing fitness amounted to 0.009.

For C82A A111G A120C A145C C150G C169A, the reverse-splicing fitness was determined as 0.0102.

Consider C82A A111G A120C A145U C150A C169U U176C, for which the reverse-splicing fitness was 0.0123.

For the variant C82A A111G A120C A145U C150A C169U U176G, the reverse-splicing fitness amounted to 0.00664.

With C82A A111G A120C A145U C150A C169U U176A, the reverse-splicing fitness stood at 0.0152.

Turning to C82A A111G A120C A145G C150G C169G, the reverse-splicing fitness was found to be 0.00734.

As to C82A A111G A120C A145G C150G C169A, the reverse-splicing fitness was 0.00974.

C82A A111G A120C A145G C150G C169U: the reverse-splicing fitness worked out at 0.00967.

C82A A111G A120C A145G C150U U176G: the reverse-splicing fitness turned out to be 0.00916.

C82A A111G A120C A145G C150U U176C: the reverse-splicing fitness is 0.0258.

For C82A A111G A120C A145G C150U U176A, the reverse-splicing fitness stood at 0.0156.

As for C82A A111G A120C A145U C150A U176C, the reverse-splicing fitness stood at 0.0198.

For the variant C82A A111G A120C A145U C150A U176A, the reverse-splicing fitness turned out to be 0.012.

Regarding C82A A111G A120C A145U C150A U176G, the reverse-splicing fitness worked out at 0.00739.

For C82A A111G A120C A145C C169A U176G, the reverse-splicing fitness was determined as 0.0053.

In the case of C82A A111G A120C A145C C169A U176C, the reverse-splicing fitness amounted to 0.0109.

For the variant C82A A111G A120C A145C C169A U176A, the reverse-splicing fitness was determined as 0.0162.

As to C82A A111G A120C A145U, the reverse-splicing fitness amounted to 0.0424.

For C82A A111G A120C A145G, the reverse-splicing fitness was 0.0444.

As for C82A A111G A120C A145C C150U C169U U176A, the reverse-splicing fitness amounted to 0.0132.

In the case of C82A A111G A120C A145C C150U C169U U176C, the reverse-splicing fitness came to 0.0102.

For the variant C82A A111G A120C A145C C150U C169U U176G, the reverse-splicing fitness is 0.00597.

For the variant C82A A111G A120C A145U C150A C169A U176C, the reverse-splicing fitness was 0.0134.

As to C82A A111G A120C A145U C150A C169A U176A, the reverse-splicing fitness was 0.0196.

As to C82A A111G A120C A145U C150A C169A U176G, the reverse-splicing fitness was 0.00712.

Consider C82A A111G A120C A145C C150A C169U U176C, for which the reverse-splicing fitness worked out at 0.011.

Consider C82A A111G A120C A145C C150A C169U U176G, for which the reverse-splicing fitness turned out to be 0.00607.

C82A A111G A120C A145C C150A C169U U176A: the reverse-splicing fitness turned out to be 0.0138.

For the variant C82A A111G A120C A145G C150A C169A, the reverse-splicing fitness is 0.0119.

Turning to C82A A111G A120C A145G C150A C169U, the reverse-splicing fitness is 0.00999.

C82A A111G A120C A145G C150A C169G: the reverse-splicing fitness was found to be 0.00915.

Regarding C82A A111G A120C A145U C150A C169G U176C, the reverse-splicing fitness was 0.0245.

Turning to C82A A111G A120C A145U C150A C169G U176G, the reverse-splicing fitness came to 0.00642.

With C82A A111G A120C A145U C150A C169G U176A, the reverse-splicing fitness stood at 0.0188.

As for C82A A111G A120C A145G C150U C169G U176G, the reverse-splicing fitness was 0.00629.

For C82A A111G A120C A145G C150U C169G U176A, the reverse-splicing fitness is 0.0161.

Turning to C82A A111G A120C A145G C150U C169G U176C, the reverse-splicing fitness was 0.0192.

As for C82A A111G A120C A145C C169G U176G, the reverse-splicing fitness was found to be 0.00569.

Turning to C82A A111G A120C A145C C169G U176C, the reverse-splicing fitness amounted to 0.0238.

For the variant C82A A111G A120C A145C C169G U176A, the reverse-splicing fitness was determined as 0.0285.

C82A A111G A120C A145C C150G C169G U176C: the reverse-splicing fitness is 0.00812.

Take C82A A111G A120C A145C C150G C169G U176G: the reverse-splicing fitness worked out at 0.00568.

As for C82A A111G A120C A145C C150G C169G U176A, the reverse-splicing fitness stood at 0.00979.

The values are drawn from the RNAGym collection of RNA variant scans (doi:10.1093/molbev/msab373).
